From PMC4284226

Target: TRPM8-mTurquoise2 (human) (UniProt Q7Z2W7)
Assay: FRET or BRET

Chain of UniProt Q7Z2W7 (Q7Z2W7 2-1104): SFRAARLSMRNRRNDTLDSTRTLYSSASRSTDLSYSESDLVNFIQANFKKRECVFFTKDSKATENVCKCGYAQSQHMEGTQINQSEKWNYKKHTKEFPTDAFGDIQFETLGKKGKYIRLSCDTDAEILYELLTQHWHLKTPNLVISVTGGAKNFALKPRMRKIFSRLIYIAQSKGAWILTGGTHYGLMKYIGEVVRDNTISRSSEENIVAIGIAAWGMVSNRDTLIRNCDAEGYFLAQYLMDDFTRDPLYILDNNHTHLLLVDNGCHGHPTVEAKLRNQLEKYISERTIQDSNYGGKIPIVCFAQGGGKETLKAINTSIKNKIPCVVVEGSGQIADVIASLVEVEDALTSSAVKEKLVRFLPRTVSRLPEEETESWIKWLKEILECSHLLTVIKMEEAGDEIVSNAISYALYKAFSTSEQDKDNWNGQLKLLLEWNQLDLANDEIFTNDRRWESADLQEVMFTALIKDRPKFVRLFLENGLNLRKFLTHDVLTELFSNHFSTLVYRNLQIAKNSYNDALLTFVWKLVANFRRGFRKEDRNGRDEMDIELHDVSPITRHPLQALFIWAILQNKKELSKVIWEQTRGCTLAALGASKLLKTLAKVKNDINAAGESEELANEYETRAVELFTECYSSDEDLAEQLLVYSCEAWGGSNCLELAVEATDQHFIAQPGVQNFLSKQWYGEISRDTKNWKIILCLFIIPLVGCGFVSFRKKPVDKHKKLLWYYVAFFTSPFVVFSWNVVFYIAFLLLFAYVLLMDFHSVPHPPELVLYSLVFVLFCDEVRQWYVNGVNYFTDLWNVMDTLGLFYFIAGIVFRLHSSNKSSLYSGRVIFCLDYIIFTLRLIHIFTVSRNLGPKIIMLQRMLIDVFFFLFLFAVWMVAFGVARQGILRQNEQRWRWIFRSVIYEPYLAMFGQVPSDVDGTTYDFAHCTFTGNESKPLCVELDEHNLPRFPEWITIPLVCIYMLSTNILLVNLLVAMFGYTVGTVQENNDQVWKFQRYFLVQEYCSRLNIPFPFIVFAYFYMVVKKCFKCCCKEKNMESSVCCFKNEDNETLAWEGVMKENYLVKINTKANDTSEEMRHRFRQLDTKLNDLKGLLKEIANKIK

free SYFP2 protein
E FRET: < 1%
